Paper PMC7979752

Key:
[1] = target: SmhC (S. marcescens MSU-97)
[2] = target: SmhB (S. marcescens MSU-97); assay: crystal structure; SmhB pore form, crystallised in 0.2 M calcium chloride, 40% MPD, 16 °C; space group C2, 6.98 Å

SmhB (natural protein)
percentage lysis of horse erythrocytes with equimolar SmhB and SmhC, 2 h [1]: 5% | stoichiometry N [2]: 10
